The target in test [1] is Recombinant human his-tagged IGF R extracellular domain protein (human) (UniProt P08069). The experiment in a line: SPR, Ab captured via anti-huIgG Fc, pH 7.4.
For test [2] the target is unchanged. Put plainly: SPR, Ab captured via anti-huIgG Fc, dissociation at pH 6. A general note: SPR reads the build-up and loss of mass on a sensor chip optically.

B1: VRDN-02054 (antibody, V domains shown)
VH: QVQLQESGPGLVKPSETLSLTCTVSGYSITGGYLWNWIRQPPGKGLEWIGYISYDGTNNYKPSLKDRVTISRDTSKNQFSLKLSSVTAADTAVYYCARYGRVFFDYWGQGTLVTVSS
VL: DIVMTQSPLSLPVTPGEPASISCRSSQSIVHSNGNTYLQWYLQKPGQSPQLLIYKVSNRLYGVPDRFSGSGSGTDFTLKISRVEAEDVGVYYCFQGHHVPWTFGQGTKVEIK
By Kd is commonly meant the concentration at which binding is half-saturated. Broadly, the koff is a measure of how fast the partners let go of each other. What is called kon is the second-order rate constant of association. For B1, in test [1], the dissociation constant (Kd) stood at 0.838 nM, the off-rate constant (koff) was found to be 6.19e-05 s⁻¹ and the kon amounted to 73900 M⁻¹ s⁻¹. Also, in test [2], the Kd is 1.14 nM, the dissociation rate constant (koff) was found to be 8.07e-05 s⁻¹ and the on-rate constant (kon) is 70700 M⁻¹ s⁻¹.

B2: VRDN-02056 (antibody, V domains shown)
VH: QVQLQESGPGLVKPSETLSLTCTVSGYSITGGYLWNWIRQPPGKGLEWIGYISYDGTNNYKPSLKDRVTISRDTSKNQFSLKLSSVTAADTAVYYCARYGRVFFDYWGQGTLVTVSS
VL: DIVMTQSPLSLPVTPGEPASISCRSSQSIVHSNGNTYLQWYLQKPGQSPQLLIYKVSNRLYGVPDRFSGSGSGTDFTLKISRVEAEDVGVYYCFQGSHVHWTFGQGTKVEIK
Regarding B2, in test [1], the Kd amounted to 0.237 nM, the koff amounted to 1.98e-05 s⁻¹ and the on-rate constant (kon) is 83500 M⁻¹ s⁻¹. Further, in test [2], the Kd was found to be 1.13 nM, the koff was 9.75e-05 s⁻¹ and the kon was determined as 86000 M⁻¹ s⁻¹.

B3: VRDN-02068 (antibody, V domains shown)
VH: QVQLQESGPGLVKPSETLSLTCTVSGYSITGGYLWNWIRQPPGKGLEWIGYIHYDGTNNYKPSLKDRVTISRDTSKNQFSLKLSSVTAADTAVYYCARYGRVFFDYWGQGTLVTVSS
VL: DIVMTQSPLSLPVTPGEPASISCRSSQSIVHSNGNTYLQWYLQKPGQSPQLLIYKVSNRLYGVPDRFSGSGSGTDFTLKISRVEAEDVGVYYCFQGSHVPHTFGQGTKVEIK
For the molecule B3, in test [1], the Kd worked out at 0.249 nM, the koff stood at 2.87e-05 s⁻¹ and the kon was 115000 M⁻¹ s⁻¹. Further, in test [2], the Kd was found to be 0.376 nM, the koff amounted to 6.53e-05 s⁻¹ and the on-rate (kon) came out at 174000 M⁻¹ s⁻¹.

B4: VRDN-02006 (antibody, V domains shown)
VH: QVQLQESGPGLVKPSETLSLTCTVSGYSITHGYLWNWIRQPPGKGLEWIGYISYDGTNNYKPSLKDRVTISRDTSKNQFSLKLSSVTAADTAVYYCARYGRVFFDYWGQGTLVTVSS
VL: DIVMTQSPLSLPVTPGEPASISCRSSQSIVHSNGNTYLQWYLQKPGQSPQLLIYKVSNRLYGVPDRFSGSGSGTDFTLKISRVEAEDVGVYYCFQGSHVPWTFGQGTKVEIK
B4: in test [1], the Kd is 1.08 nM, the koff came out at 8.49e-05 s⁻¹ and the kon came out at 78500 M⁻¹ s⁻¹. For the same molecule, in test [2], the Kd worked out at 1.1 nM, the off-rate constant (koff) came out at 0.000101 s⁻¹ and the association rate constant (kon) turned out to be 92300 M⁻¹ s⁻¹.

B5: VRDN-02057 (antibody, V domains shown)
VH: QVQLQESGPGLVKPSETLSLTCTVSGYSITGGYLWNWIRQPPGKGLEWIGYISYDGTNNYKPSLKDRVTISRDTSKNQFSLKLSSVTAADTAVYYCARYGRVFFDYWGQGTLVTVSS
VL: DIVMTQSPLSLPVTPGEPASISCRSSQSIVHSNGNTYLQWYLQKPGQSPQLLIYKVSNRLYGVPDRFSGSGSGTDFTLKISRVEAEDVGVYYCFQGSHVPHTFGQGTKVEIK
Consider B5, for which, in test [1], the Kd turned out to be 0.72 nM, the koff stood at 6.9e-05 s⁻¹ and the kon was 95800 M⁻¹ s⁻¹. Moreover, in test [2], the dissociation constant (Kd) was determined as 1.4 nM, the off-rate (koff) worked out at 0.000165 s⁻¹ and the kon was found to be 118000 M⁻¹ s⁻¹.

B6: VRDN-02065 (antibody, V domains shown)
VH: QVQLQESGPGLVKPSETLSLTCTVSGYSITGGYLWNWIRQPPGKGLEWIGYIHYDGTNNYKPSLKDRVTISRDTSKNQFSLKLSSVTAADTAVYYCARYGRVFFDYWGQGTLVTVSS
VL: DIVMTQSPLSLPVTPGEPASISCRSSQSIVHSNGNTYLQWYLQKPGQSPQLLIYKVSNRLYGVPDRFSGSGSGTDFTLKISRVEAEDVGVYYCFQGSHVHWTFGQGTKVEIK
Turning to B6, in test [1], the Kd was 0.22 nM, the koff is 2.54e-05 s⁻¹ and the kon turned out to be 116000 M⁻¹ s⁻¹. In test [2], the Kd was 0.232 nM, the koff was found to be 4.83e-05 s⁻¹ and the association rate constant (kon) amounted to 208000 M⁻¹ s⁻¹.

B7: VRDN-02060 (antibody, V domains shown)
VH: QVQLQESGPGLVKPSETLSLTCTVSGYSITGGYLWNWIRQPPGKGLEWIGYISYHGTNNYKPSLKDRVTISRDTSKNQFSLKLSSVTAADTAVYYCARYGRVFFDYWGQGTLVTVSS
VL: DIVMTQSPLSLPVTPGEPASISCRSHQSIVHSNGNTYLQWYLQKPGQSPQLLIYKVSNRLYGVPDRFSGSGSGTDFTLKISRVEAEDVGVYYCFQGSHVPWTFGQGTKVEIK
Regarding B7, in test [1], the dissociation constant Kd is 0.249 nM, the off-rate (koff) was found to be 2.77e-05 s⁻¹ and the kon was 111000 M⁻¹ s⁻¹. For the same molecule, in test [2], the Kd amounted to 0.394 nM, the koff was 6.07e-05 s⁻¹ and the association rate constant (kon) worked out at 154000 M⁻¹ s⁻¹.

B8: VRDN-02062 (antibody, V domains shown)
VH: QVQLQESGPGLVKPSETLSLTCTVSGYSITGGYLWNWIRQPPGKGLEWIGYIHYDGTNNYKPSLKDRVTISRDTSKNQFSLKLSSVTAADTAVYYCARYGRVFFDYWGQGTLVTVSS
VL: DIVMTQSPLSLPVTPGEPASISCRSSQSIVHSNGNTYLQWYLQKPGQSPQLLIYKVSNRLYGVPDRFSGSGSGTDFTLKISRVEAEDVGVYYCFHGSHVPWTFGQGTKVEIK
Consider B8, for which, in test [1], the Kd stood at 0.225 nM, the dissociation rate constant (koff) worked out at 2.13e-05 s⁻¹ and the on-rate (kon) is 94300 M⁻¹ s⁻¹. For the same molecule, in test [2], the Kd was found to be 0.166 nM, the dissociation rate constant (koff) came out at 2.82e-05 s⁻¹ and the kon turned out to be 170000 M⁻¹ s⁻¹.

B9: VRDN-02063 (antibody, V domains shown)
VH: QVQLQESGPGLVKPSETLSLTCTVSGYSITGGYLWNWIRQPPGKGLEWIGYISYHGTNNYKPSLKDRVTISRDTSKNQFSLKLSSVTAADTAVYYCARYGRVFFDYWGQGTLVTVSS
VL: DIVMTQSPLSLPVTPGEPASISCRSSQSIVHSNGNTYLQWYLQKPGQSPQLLIYKVSNRLYGVPDRFSGSGSGTDFTLKISRVEAEDVGVYYCFHGSHVPWTFGQGTKVEIK
As for B9, in test [1], the dissociation constant (Kd) came out at 0.19 nM, the off-rate (koff) came out at 2.11e-05 s⁻¹ and the kon came to 111000 M⁻¹ s⁻¹. In test [2], the equilibrium dissociation constant (Kd) worked out at 0.284 nM, the off-rate constant (koff) is 3.97e-05 s⁻¹ and the kon was 140000 M⁻¹ s⁻¹.

B10: VRDN-02067 (antibody, V domains shown)
VH: QVQLQESGPGLVKPSETLSLTCTVSGYSITGGYLWNWIRQPPGKGLEWIGYISYDGTNNYKPSLKDRVTISRDTSKNQFSLKLSSVTAADTAVYYCARHGRVFFDYWGQGTLVTVSS
VL: DIVMTQSPLSLPVTPGEPASISCRSSQSIVHSNGNTYLQWYLQKPGQSPQLLIYKVSNRLYGVPDRFSGSGSGTDFTLKISRVEAEDVGVYYCFQGSHVHWTFGQGTKVEIK
As to B10, in test [1], the Kd amounted to 0.25 nM, the off-rate constant (koff) is 2.75e-05 s⁻¹ and the kon is 110000 M⁻¹ s⁻¹. Moreover, in test [2], the Kd came to 0.31 nM, the koff worked out at 5.44e-05 s⁻¹ and the kon amounted to 175000 M⁻¹ s⁻¹.

B11: VRDN-02061 (antibody, V domains shown)
VH: QVQLQESGPGLVKPSETLSLTCTVSGYSITGGYLWNWIRQPPGKGLEWIGYISYDGTNNYKPSLKDRVTISRDTSKNQFSLKLSSVTAADTAVYYCARHGRVFFDYWGQGTLVTVSS
VL: DIVMTQSPLSLPVTPGEPASISCRSHQSIVHSNGNTYLQWYLQKPGQSPQLLIYKVSNRLYGVPDRFSGSGSGTDFTLKISRVEAEDVGVYYCFQGSHVPWTFGQGTKVEIK
On to B11, for which, in test [1], the Kd turned out to be 0.28 nM, the koff turned out to be 2.65e-05 s⁻¹ and the kon came out at 94700 M⁻¹ s⁻¹. In test [2], the Kd is 0.299 nM, the off-rate constant (koff) worked out at 4.34e-05 s⁻¹ and the kon was found to be 145000 M⁻¹ s⁻¹.

B12: VRDN-02058 (antibody, V domains shown)
VH: QVQLQESGPGLVKPSETLSLTCTVSGYSITGGYLWNWIRQPPGKGLEWIGYISYDGTNNYKPSLKDRVTISRDTSKNQFSLKLSSVTAADTAVYYCARYGRVFFDYWGQGTLVTVSS
VL: DIVMTQSPLSLPVTPGEPASISCRSSQSIVHSNGNTYLQWYLQKPGQSPQLLIYKVSNRLYGVPDRFSGSGSGTDFTLKISRVEAEDVGVYYCFQGSHVPWHFGQGTKVEIK
With B12, in test [1], the dissociation constant (Kd) was determined as 0.836 nM, the dissociation rate constant (koff) came out at 8.5e-05 s⁻¹ and the kon turned out to be 102000 M⁻¹ s⁻¹. For the same molecule, in test [2], the Kd turned out to be 1.18 nM, the koff came out at 9.52e-05 s⁻¹ and the association rate constant (kon) came to 80800 M⁻¹ s⁻¹.

B13: VRDN-02066 (antibody, V domains shown)
VH: QVQLQESGPGLVKPSETLSLTCTVSGYSITGGYLWNWIRQPPGKGLEWIGYISYHGTNNYKPSLKDRVTISRDTSKNQFSLKLSSVTAADTAVYYCARYGRVFFDYWGQGTLVTVSS
VL: DIVMTQSPLSLPVTPGEPASISCRSSQSIVHSNGNTYLQWYLQKPGQSPQLLIYKVSNRLYGVPDRFSGSGSGTDFTLKISRVEAEDVGVYYCFQGSHVHWTFGQGTKVEIK
As for B13, in test [1], the Kd stood at 0.278 nM, the dissociation rate constant (koff) came to 3.12e-05 s⁻¹ and the association rate constant (kon) worked out at 112000 M⁻¹ s⁻¹. Besides, in test [2], the Kd came to 0.296 nM, the dissociation rate constant (koff) worked out at 5.14e-05 s⁻¹ and the kon is 174000 M⁻¹ s⁻¹.

B14: VRDN-02055 (antibody, V domains shown)
VH: QVQLQESGPGLVKPSETLSLTCTVSGYSITGGYLWNWIRQPPGKGLEWIGYISYDGTNNYKPSLKDRVTISRDTSKNQFSLKLSSVTAADTAVYYCARYGRVFFDYWGQGTLVTVSS
VL: DIVMTQSPLSLPVTPGEPASISCRSSQSIVHSNGNTYLQWYLQKPGQSPQLLIYKVSNRLYGVPDRFSGSGSGTDFTLKISRVEAEDVGVYYCFQGSHHPWTFGQGTKVEIK
Regarding B14, in test [1], the equilibrium dissociation constant (Kd) amounted to 0.509 nM, the off-rate (koff) turned out to be 4.92e-05 s⁻¹ and the kon was 96600 M⁻¹ s⁻¹. Moreover, in test [2], the Kd amounted to 1.1 nM, the off-rate constant (koff) came to 0.000101 s⁻¹ and the on-rate (kon) turned out to be 91800 M⁻¹ s⁻¹.

B15: VRDN-02064 (antibody, V domains shown)
VH: QVQLQESGPGLVKPSETLSLTCTVSGYSITGGYLWNWIRQPPGKGLEWIGYISYDGTNNYKPSLKDRVTISRDTSKNQFSLKLSSVTAADTAVYYCARHGRVFFDYWGQGTLVTVSS
VL: DIVMTQSPLSLPVTPGEPASISCRSSQSIVHSNGNTYLQWYLQKPGQSPQLLIYKVSNRLYGVPDRFSGSGSGTDFTLKISRVEAEDVGVYYCFHGSHVPWTFGQGTKVEIK
In the case of B15, in test [1], the Kd was found to be 0.235 nM, the koff stood at 2.48e-05 s⁻¹ and the kon came out at 106000 M⁻¹ s⁻¹. For the same molecule, in test [2], the equilibrium dissociation constant (Kd) was determined as 0.145 nM, the koff worked out at 2.27e-05 s⁻¹ and the on-rate constant (kon) was 157000 M⁻¹ s⁻¹.

These data come from US20240360227A1.
